Patent publication US20200199241A1 (Chugai, published 2020)

T1: mouse FcγRI (mouse, UniProt P26151 25-297)
T1 construct: bought; also called mFcgRI; mFcgR 1
T1 sequence (looked up): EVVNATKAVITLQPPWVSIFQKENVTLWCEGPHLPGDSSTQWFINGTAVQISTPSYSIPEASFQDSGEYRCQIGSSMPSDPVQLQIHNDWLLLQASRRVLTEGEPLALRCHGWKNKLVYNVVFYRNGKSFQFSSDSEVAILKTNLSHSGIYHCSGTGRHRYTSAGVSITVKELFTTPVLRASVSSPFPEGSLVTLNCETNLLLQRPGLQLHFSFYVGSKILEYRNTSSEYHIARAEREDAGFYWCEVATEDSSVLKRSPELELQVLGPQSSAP

T2: mouse FcγRIIb (mouse, UniProt P08101 30-207, limits assumed)
T2 construct: bought; also called mFcgRIIb; mFcgR IIb
T2 sequence (looked up): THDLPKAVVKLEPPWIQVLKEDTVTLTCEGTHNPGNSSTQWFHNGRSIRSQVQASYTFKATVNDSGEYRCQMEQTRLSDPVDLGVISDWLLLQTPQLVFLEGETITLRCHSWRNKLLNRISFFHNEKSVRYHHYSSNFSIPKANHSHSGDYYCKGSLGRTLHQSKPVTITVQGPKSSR

T3: mouse FcγRIII (mouse, UniProt P08508 31-215)
T3 construct: bought; also called mFcgRIII; mFcgR III
T3 sequence (looked up): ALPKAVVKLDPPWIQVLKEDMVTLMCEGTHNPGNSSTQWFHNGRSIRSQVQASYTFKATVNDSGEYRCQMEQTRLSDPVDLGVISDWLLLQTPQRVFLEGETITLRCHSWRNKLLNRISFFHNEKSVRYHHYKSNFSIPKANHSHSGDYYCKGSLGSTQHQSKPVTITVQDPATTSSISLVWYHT

T4: mouse FcγRIV (mouse, UniProt A0A0B4J1G0 21-203)
T4 construct: bought; also called mFcgRIV; mFcgR IV; the vendor's purification tag not given
T4 sequence: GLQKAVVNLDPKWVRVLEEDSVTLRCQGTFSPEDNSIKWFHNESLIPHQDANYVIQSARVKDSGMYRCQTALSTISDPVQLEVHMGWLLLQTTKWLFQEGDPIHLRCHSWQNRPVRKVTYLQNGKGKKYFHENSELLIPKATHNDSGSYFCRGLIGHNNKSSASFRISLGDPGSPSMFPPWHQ

T5: human FcγRIIb (human, UniProt P31994 43-217, limits assumed)
T5 construct: also called hFcgRIIb; FcγIIB
T5 sequence: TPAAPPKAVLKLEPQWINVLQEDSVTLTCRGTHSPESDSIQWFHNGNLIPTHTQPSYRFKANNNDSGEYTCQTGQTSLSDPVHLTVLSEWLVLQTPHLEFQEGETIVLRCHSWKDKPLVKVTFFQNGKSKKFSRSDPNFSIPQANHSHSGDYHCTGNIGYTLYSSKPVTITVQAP

T6: human FcγRIIa(R) (human, UniProt P12318 36-217)
T6 construct: also called hFcgRIIa(R); FcγRIIa type R
T6 chain: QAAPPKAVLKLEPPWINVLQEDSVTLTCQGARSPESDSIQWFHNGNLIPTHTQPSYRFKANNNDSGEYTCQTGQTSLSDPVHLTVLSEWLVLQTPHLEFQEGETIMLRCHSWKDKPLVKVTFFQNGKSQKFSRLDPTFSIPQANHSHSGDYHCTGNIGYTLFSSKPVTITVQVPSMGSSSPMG

T7: human FcγRIIa(H) (human, UniProt P12318 36-217)
T7 construct: also called hFcgRIIa(H); FcγRIIa type H
T7 sequence: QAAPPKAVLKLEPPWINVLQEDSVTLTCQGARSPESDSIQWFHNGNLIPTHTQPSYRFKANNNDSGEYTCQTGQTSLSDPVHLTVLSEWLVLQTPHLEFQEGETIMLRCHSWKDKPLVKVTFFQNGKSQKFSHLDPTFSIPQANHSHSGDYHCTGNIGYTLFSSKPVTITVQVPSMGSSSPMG

T8: human FcγRIIa(R) (human, UniProt P12318 36-217)
T8 construct: also called FcgRIIaR; hFcgRIIa(R)
T8 chain: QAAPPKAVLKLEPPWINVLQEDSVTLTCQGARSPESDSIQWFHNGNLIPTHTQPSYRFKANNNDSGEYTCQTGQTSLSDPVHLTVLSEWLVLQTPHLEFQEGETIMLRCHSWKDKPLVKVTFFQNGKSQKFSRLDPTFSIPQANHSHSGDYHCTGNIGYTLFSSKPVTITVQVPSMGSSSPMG

T9: human FcγRIIa(H) (human, UniProt P12318 36-217)
T9 construct: also called FcgRIIaH; hFcgRIIa(H)
T9 sequence: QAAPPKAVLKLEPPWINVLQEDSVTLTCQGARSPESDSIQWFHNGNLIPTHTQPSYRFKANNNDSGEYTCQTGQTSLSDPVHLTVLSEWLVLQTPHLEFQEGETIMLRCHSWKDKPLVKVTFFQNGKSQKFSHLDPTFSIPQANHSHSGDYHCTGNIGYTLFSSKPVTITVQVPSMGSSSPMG

T10: human FcγRIIb (human, UniProt P31994 43-217, limits assumed)
T10 construct: also called FcgRIIb; hFcgRIIb
T10 sequence: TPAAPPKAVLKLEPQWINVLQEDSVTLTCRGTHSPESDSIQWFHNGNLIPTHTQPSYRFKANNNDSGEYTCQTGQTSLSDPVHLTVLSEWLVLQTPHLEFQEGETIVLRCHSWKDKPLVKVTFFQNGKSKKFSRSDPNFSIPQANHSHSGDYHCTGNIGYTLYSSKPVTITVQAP


Tests used:
[1] = target: T11, human FcRn (soluble human FcRn complexed with β2-microglobulin) (human, UniProt P61769 21-119, limits assumed); assay: SPR, antibody captured by Protein L, human FcRn as analyte, pH 7.0, 25 C
T11 construct: also called hFcRn
T11 sequence (chain, as listed by the source limits assumed, chain 1 of 2): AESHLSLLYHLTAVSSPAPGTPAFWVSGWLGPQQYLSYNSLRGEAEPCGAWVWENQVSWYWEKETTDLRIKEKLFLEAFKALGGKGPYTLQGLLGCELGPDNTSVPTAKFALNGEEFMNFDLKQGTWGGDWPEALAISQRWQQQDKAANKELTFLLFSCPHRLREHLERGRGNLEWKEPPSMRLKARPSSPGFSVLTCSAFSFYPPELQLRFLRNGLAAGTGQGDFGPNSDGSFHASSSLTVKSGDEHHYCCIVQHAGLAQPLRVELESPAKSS
T11 sequence (P61769 21-119 limits assumed, chain 2 of 2): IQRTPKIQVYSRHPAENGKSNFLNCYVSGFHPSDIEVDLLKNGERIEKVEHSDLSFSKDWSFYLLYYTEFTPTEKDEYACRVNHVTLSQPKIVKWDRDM

mouse FcγRI = target: T1, mouse FcγRI; assay: SPR, antibody captured by Protein L, mouse FcγR as analyte, pH 7.4, 25 C
mouse FcγRIIb = target: T2, mouse FcγRIIb; assay: as above
mouse FcγRIII = target: T3, mouse FcγRIII; assay: as above
mouse FcγRIV = target: T4, mouse FcγRIV; assay: as above
human FcγRIIb [2] = target: T5, human FcγRIIb; assay: SPR, antibody captured by Protein L, human FcγR as analyte, pH 7.4, 25 C;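 also: biacore T100 or T200 with Protein L amine-coupled on a CM4 chip, FcγRs diluted in ACES saline with polysorbate 20, buffer-only injection as blank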
human FcγRIIIa(V) [3] = target: T12, human FcγRIIIa(V) (human, UniProt P08637 17-208, limits assumed); assay: as above
T12 construct: also called hFcgRIIIa(V); allotype V158

human FcγRIa [4] = target: T13, human FcγRIa (human, UniProt P12314 16-292, limits assumed); assay: as above
T13 construct: also called hFcgRIa; hFcgRI

human FcγRIIa(R) [5] = target: T6, human FcγRIIa(R); assay: as above
human FcγRIIa(H) [6] = target: T7, human FcγRIIa(H); assay: as above
human FcγRIa [7] = target: T14, human FcγRIa (human, UniProt P12314 16-292, limits assumed); assay: SPR, pH 7.4, antibody captured by Protein L
T14 construct: also called FcgRIa; hFcgRIa

human FcγRIIa(R) [8] = target: T8, human FcγRIIa(R); assay: SPR, pH 7.4, antibody captured by Protein L
human FcγRIIa(H) [9] = target: T9, human FcγRIIa(H); assay: SPR, pH 7.4, antibody captured by Protein L
human FcγRIIb [10] = target: T10, human FcγRIIb; assay: SPR, pH 7.4, antibody captured by Protein L
human FcγRIIIa(V) [11] = target: T15, human FcγRIIIa(V) (human, UniProt P08637 17-208, limits assumed); assay: SPR, pH 7.4, antibody captured by Protein L
T15 construct: also called hFcgRIIIa(V); FcγRIIIa allotype V158

Binder	Kd [1]	BINDING AMOUNT (RU) (mouse FcγRI)	BINDING AMOUNT (RU) (mouse FcγRIIb)	BINDING AMOUNT (RU) (mouse FcγRIII)	BINDING AMOUNT (RU) (mouse FcγRIV)	BINDING AMOUNT (RU) (human FcγRIIb [2])	BINDING AMOUNT (RU) (human FcγRIIIa(V) [3])	BINDING AMOUNT (RU) (human FcγRIa [4])	BINDING AMOUNT (RU) (human FcγRIIa(R) [5])	BINDING AMOUNT (RU) (human FcγRIIa(H) [6])	binding amount (human FcγRIa [7])	binding amount (human FcγRIIa(R) [8])	binding amount (human FcγRIIa(H) [9])	binding amount (human FcγRIIb [10])	binding amount (human FcγRIIIa(V) [11])
antibody with VH3-IgG1-F821 heavy chain and L(WT)-CK light chain (antibody, L235R/S239K/M252Y/N434Y; copies: 2 + 2) heavy: QVQLQESGPGLVKPSETLSLTCAVSGHSISHDHAWSWVRQPPGEGLEWIGFISYSGITNYNPSLQGRVTISRDNSKNTLYLQMNSLRAEDTAVYYCARSLARTTAMDYWGEGTLVTVSSASTKGPSVFPLAPSSKSTSGGTAALGCLVKDYFPEPVTVSWNSGALTSGVHTFPAVLQSSGLYSLSSVVTVPSSSLGTQTYICNVNHKPSNTKVDKKVEPKSCDKTHTCPPCPAPELRGGPKVFLFPPKPKDTLYISRTPEVTCVVVDVSHEDPEVKFNWYVDGVEVHNAKTKPREEQYNSTYRVVSVLTVLHQDWLNGKEYKCKVSNKALPAPIEKTISKAKGQPREPQVYTLPPSRDELTKNQVSLTCLVKGFYPSDIAVEWESNGQPENNYKTTPPVLDSDGSFFLYSKLTVDKSRWQQGNVFSCSVMHEALHYHYTQKSLSLSP light: not shown	310 nM	0.6 RU	-4.5 RU	-20.3 RU	-3.8 RU	–	–	–	–	–	–	–	–	–	–
antibody with VH3-IgG1-F890 heavy chain and L(WT)-CK light chain (antibody, M252Y/N434Y/Y436V; copies: 2 + 2) heavy: QVQLQESGPGLVKPSETLSLTCAVSGHSISHDHAWSWVRQPPGEGLEWIGFISYSGITNYNPSLQGRVTISRDNSKNTLYLQMNSLRAEDTAVYYCARSLARTTAMDYWGEGTLVTVSSASTKGPSVFPLAPSSKSTSGGTAALGCLVKDYFPEPVTVSWNSGALTSGVHTFPAVLQSSGLYSLSSVVTVPSSSLGTQTYICNVNHKPSNTKVDKKVEPKSCDKTHTCPPCPAPELLGGPSVFLFPPKPKDTLYISRTPEVTCVVVDVSHEDPEVKFNWYVDGVEVHNAKTKPREEQYNSTYRVVSVLTVLHQDWLNGKEYKCKVSNKALPAPIEKTISKAKGQPREPQVYTLPPSRDELTKNQVSLTCLVKGFYPSDIAVEWESNGQPENNYKTTPPVLDSDGSFFLYSKLTVDKSRWQQGNVFSCSVMHEALHYHVTQKSLSLSP light: not shown	110 nM	268 RU	69.3 RU	284 RU	230 RU	54.1 RU	180 RU	363 RU	128 RU	117 RU	–	–	–	–	–
antibody with VH3-IgG1-F939 heavy chain and L(WT)-CK light chain (antibody, L235R/S239K/M252Y/N434Y/Y436V; copies: 2 + 2) heavy: QVQLQESGPGLVKPSETLSLTCAVSGHSISHDHAWSWVRQPPGEGLEWIGFISYSGITNYNPSLQGRVTISRDNSKNTLYLQMNSLRAEDTAVYYCARSLARTTAMDYWGEGTLVTVSSASTKGPSVFPLAPSSKSTSGGTAALGCLVKDYFPEPVTVSWNSGALTSGVHTFPAVLQSSGLYSLSSVVTVPSSSLGTQTYICNVNHKPSNTKVDKKVEPKSCDKTHTCPPCPAPELRGGPKVFLFPPKPKDTLYISRTPEVTCVVVDVSHEDPEVKFNWYVDGVEVHNAKTKPREEQYNSTYRVVSVLTVLHQDWLNGKEYKCKVSNKALPAPIEKTISKAKGQPREPQVYTLPPSRDELTKNQVSLTCLVKGFYPSDIAVEWESNGQPENNYKTTPPVLDSDGSFFLYSKLTVDKSRWQQGNVFSCSVMHEALHYHVTQKSLSLSP light: not shown	150 nM	-2 RU	-6.3 RU	-24.9 RU	-7.3 RU	-0.2 RU	-0.75 RU	-2.37 RU	-0.8 RU	-0.9 RU	–	–	–	–	–
VH3-IgG2-F890/L(WT)-CK (antibody, M252Y/N434Y/Y436V in VH3-IgG2; copies: 2 + 2) heavy: QVQLQESGPGLVKPSETLSLTCAVSGHSISHDHAWSWVRQPPGEGLEWIGFISYSGITNYNPSLQGRVTISRDNSKNTLYLQMNSLRAEDTAVYYCARSLARTTAMDYWGEGTLVTVSSASTKGPSVFPLAPCSRSTSESTAALGCLVKDYFPEPVTVSWNSGALTSGVHTFPAVLQSSGLYSLSSVVTVPSSNFGTQTYTCNVDHKPSNTKVDKTVERKCCVECPPCPAPPVAGPSVFLFPPKPKDTLYISRTPEVTCVVVDVSHEDPEVQFNWYVDGVEVHNAKTKPREEQFNSTFRVVSVLTVVHQDWLNGKEYKCKVSNKGLPAPIEKTISKTKGQPREPQVYTLPPSREEMTKNQVSLTCLVKGFYPSDIAVEWESNGQPENNYKTTPPMLDSDGSFFLYSKLTVDKSRWQQGNVFSCSVMHEALHYHVTQKSLSLSP light: not shown	–	–	–	–	–	–	–	–	–	–	19.7 RU	120 RU	204 RU	31.9 RU	28.1 RU
VH3-IgG2/L(WT)-CK (antibody, copies: 2 + 2) heavy: QVQLQESGPGLVKPSETLSLTCAVSGHSISHDHAWSWVRQPPGEGLEWIGFISYSGITNYNPSLQGRVTISRDNSKNTLYLQMNSLRAEDTAVYYCARSLARTTAMDYWGEGTLVTVSSASTKGPSVFPLAPCSRSTSESTAALGCLVKDYFPEPVTVSWNSGALTSGVHTFPAVLQSSGLYSLSSVVTVPSSNFGTQTYTCNVDHKPSNTKVDKTVERKCCVECPPCPAPPVAGPSVFLFPPKPKDTLMISRTPEVTCVVVDVSHEDPEVQFNWYVDGVEVHNAKTKPREEQFNSTFRVVSVLTVVHQDWLNGKEYKCKVSNKGLPAPIEKTISKTKGQPREPQVYTLPPSREEMTKNQVSLTCLVKGFYPSDIAVEWESNGQPENNYKTTPPMLDSDGSFFLYSKLTVDKSRWQQGNVFSCSVMHEALHNHYTQKSLSLSP light: not shown	–	–	–	–	–	–	–	–	–	–	38.6 RU	188 RU	266 RU	55.5 RU	50.1 RU
